Data as given in patent US20260217779A1 (Chugai, published 2026).
Where a chain is given by its changes, count along the chain named. Names may count otherwise.

T1: human CXCR3 (hCXCR3) on Ba/F3 transfectant cells (human, UniProt P49682 1-368)
T1 sequence: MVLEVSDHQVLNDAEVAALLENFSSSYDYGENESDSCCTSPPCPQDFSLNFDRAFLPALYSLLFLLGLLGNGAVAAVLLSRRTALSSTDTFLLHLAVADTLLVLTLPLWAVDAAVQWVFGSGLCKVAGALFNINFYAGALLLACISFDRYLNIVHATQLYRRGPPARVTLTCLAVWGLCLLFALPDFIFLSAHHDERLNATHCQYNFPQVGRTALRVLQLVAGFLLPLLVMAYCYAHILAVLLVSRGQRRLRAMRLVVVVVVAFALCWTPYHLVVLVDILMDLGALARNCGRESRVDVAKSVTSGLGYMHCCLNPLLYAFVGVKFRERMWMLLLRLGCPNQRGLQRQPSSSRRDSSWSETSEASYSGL

B1: hCXCL11.0021-G1T4k.one//VHn-G1T4h.one.H435R (Fc fusion)
chain 1: AFPMFKRGRCLCIGPGVKAVKVADIEKASIMYPSNNCDKIEVIITLKENKGQRCLNPKSKQARLIIKKVERKNFEPKSSDKTHTCPPCPAPELRRGPSVFLFPPKPKDTLMISRTPEVTCVVVDVSHEDPEVKFNWYVDGVEVHNAKTKPREEQYNSTYRVVSVLTVLHQDWLNGKEYKCKVSNKGLPSSIEKTISKAKGQPREPQVCTLPPSREEMTKNQVSLWCLVKGFYPSDIAVEWESNGQPENNYKTTPPVLDSDGSFFLYSKLTVDKSRWQEGNVFSCSVMHEALHNHYTQKSLSLSP
chain 2: EPKSSDKTHTCPPCPAPELRRGPSVFLFPPKPKDTLMISRTPEVTCVVVDVSHEDPEVKFNWYVDGVEVHNAKTKPREEQYNSTYRVVSVLTVLHQDWLNGKEYKCKVSNKGLPSSIEKTISKAKGQPREPQVYTLPPSRCEMTKNQVSLSCAVKGFYPSDIAVEWESNGQPENNYKTTPPVLDSDGSFFLVSKLTVDKSRWQEGNVFSCSVMHEALHNRYTQKSLSLSP
B2: hCXCL11.0035-G1T4k.one//VHn-G1T4h.one.H435R (Fc fusion)
chain 1: B1 chain 1 with A1S
chain 2: B1 chain 2
B3: hCXCL11.0027-G1T4k.one//VHn-G1T4h.one.H435R (Fc fusion)
chain 1: B1 chain 1 with A1I
chain 2: B1 chain 2
B4: hCXCL11.0022-G1T4k.one//VHn-G1T4h.one.H435R (Fc fusion)
chain 1: B1 chain 1 with A1D
chain 2: B1 chain 2
B5: hCXCL11.0032-G1T4k.one//VHn-G1T4h.one.H435R (Fc fusion)
chain 1: B1 chain 1 with A1P
chain 2: B1 chain 2
B6: hCXCL11.0039-G1T4k.one//VHn-G1T4h.one.H435R (Fc fusion)
chain 1: B1 chain 1 with A1Y
chain 2: B1 chain 2
B7: hCXCL11.0034-G1T4k.one//VHn-G1T4h.one.H435R (Fc fusion)
chain 1: B1 chain 1 with A1R
chain 2: B1 chain 2
B8: hCXCL11.0036-G1T4k.one//VHn-G1T4h.one.H435R (Fc fusion)
chain 1: B1 chain 1 with A1T
chain 2: B1 chain 2
B9: hCXCL11.0023-G1T4k.one//VHn-G1T4h.one.H435R (Fc fusion)
chain 1: B1 chain 1 with A1E
chain 2: B1 chain 2
B10: hCXCL11.0030-G1T4k.one//VHn-G1T4h.one.H435R (Fc fusion)
chain 1: B1 chain 1 with A1M
chain 2: B1 chain 2
B11: hCXCL11.0028-G1T4k.one//VHn-G1T4h.one.H435R (Fc fusion)
chain 1: B1 chain 1 with A1K
chain 2: B1 chain 2
B12: hCXCL11.0038-G1T4k.one//VHn-G1T4h.one.H435R (Fc fusion)
chain 1: B1 chain 1 with A1W
chain 2: B1 chain 2
B13: hCXCL11.0024-G1T4k.one//VHn-G1T4h.one.H435R (Fc fusion)
chain 1: B1 chain 1 with A1F
chain 2: B1 chain 2
B14: hCXCL11.0040-G1T4k.one//VHn-G1T4h.one.H435R (Fc fusion)
chain 1: B1 chain 1 with A1F, F2A
chain 2: B1 chain 2
B15: hCXCL11.0026-G1T4k.one//VHn-G1T4h.one.H435R (Fc fusion)
chain 1: B1 chain 1 with A1H
chain 2: B1 chain 2
B16: hCXCL11.0033-G1T4k.one//VHn-G1T4h.one.H435R (Fc fusion)
chain 1: B1 chain 1 with A1Q
chain 2: B1 chain 2
B17: hCXCL11.0029-G1T4k.one//VHn-G1T4h.one.H435R (Fc fusion)
chain 1: B1 chain 1 with A1L
chain 2: B1 chain 2
B18: hCXCL11.0031-G1T4k.one//VHn-G1T4h.one.H435R (Fc fusion)
chain 1: B1 chain 1 with A1N
chain 2: B1 chain 2
B19: hCXCL11.0037-G1T4k.one//VHn-G1T4h.one.H435R (Fc fusion)
chain 1: B1 chain 1 with A1V
chain 2: B1 chain 2

Target: T1, human CXCR3 (hCXCR3) on Ba/F3 …
Assay: cell-based or functional assay

Binder	Activity retention rate at 33 nM	Activity retention rate at 100 nM	Activity retention rate at 300 nM	Luminescence value at 33 nM	Luminescence value at 100 nM	Luminescence value at 300 nM
B1	108%	93%	84%	8.26e+06	1.56e+07	1.04e+07
B2	161%	95%	42%	1.23e+07	1.58e+07	5.23e+06
B3	67%	100%	102%	5.18e+06	1.67e+07	1.27e+07
B4	178%	89%	49%	1.37e+07	1.48e+07	6.06e+06
B5	33%	68%	105%	2.5e+06	1.13e+07	1.31e+07
B6	102%	86%	75%	7.86e+06	1.43e+07	9.32e+06
B7	19%	45%	77%	1.49e+06	7.45e+06	9.63e+06
B8	140%	105%	53%	1.07e+07	1.76e+07	6.59e+06
B9	189%	98%	48%	1.45e+07	1.64e+07	5.98e+06
B10	114%	98%	86%	8.75e+06	1.64e+07	1.06e+07
B11	26%	53%	90%	2e+06	8.87e+06	1.11e+07
B12	60%	83%	99%	4.63e+06	1.39e+07	1.23e+07
B13	32%	72%	105%	2.47e+06	1.2e+07	1.31e+07
B14	81%	78%	41%	6.26e+06	1.31e+07	5.05e+06
B15	71%	77%	80%	5.46e+06	1.29e+07	9.92e+06
B16	199%	92%	28%	1.53e+07	1.53e+07	3.46e+06
B17	53%	92%	108%	4.07e+06	1.54e+07	1.34e+07
B18	165%	90%	51%	1.27e+07	1.51e+07	6.39e+06
B19	111%	111%	73%	8.51e+06	1.85e+07	9.07e+06
